Measurements reported in US20250263483A1 (TRUSTEES OF COLUMBIA UNIVERSITY IN THE CITY OF NEW YORK, published 2025).
One block for each binder: values may come before it.

How the values were obtained:
[1] = target: T1, human PAG peptide (extracellular portion of human PAG) (human); assay: ELISA on human PAG-1 peptide (FIG. 10)
T1 construct: The immunogen was amino acids 1-16 of human PAG; also called human PAG-1 peptide; human PAG protein
T1 peptide: MGPAGSLLGSGQMQIT

[2] = target: T2, mouse PAG, endogenous on wild-type C57BL6 splenocytes (mouse, UniProt Q3U1F9 1-429); assay: flow cytometry, non-permeabilized WT vs PAG KO mouse splenocytes (FIG. 2B)
T2 construct: whole, on cells; also called murine PAG
T2 sequence (looked up): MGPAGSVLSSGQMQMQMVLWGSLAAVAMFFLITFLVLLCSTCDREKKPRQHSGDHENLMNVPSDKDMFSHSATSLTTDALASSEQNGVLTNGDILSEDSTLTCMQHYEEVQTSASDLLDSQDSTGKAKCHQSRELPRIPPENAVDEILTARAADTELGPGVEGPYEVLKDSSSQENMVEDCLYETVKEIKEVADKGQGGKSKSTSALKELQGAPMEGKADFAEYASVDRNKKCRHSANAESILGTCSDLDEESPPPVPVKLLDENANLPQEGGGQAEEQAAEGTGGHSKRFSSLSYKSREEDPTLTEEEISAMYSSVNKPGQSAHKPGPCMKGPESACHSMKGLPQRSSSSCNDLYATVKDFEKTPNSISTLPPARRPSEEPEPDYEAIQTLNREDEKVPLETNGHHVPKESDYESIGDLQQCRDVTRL
Protocol: (§1) Non-permeabilized cells were stained with the primary antibody clones in FACS Buffer [HBSS without Ca²⁺/Mg²⁺, FBS (3%), NaN3 (0.02%), and CaCl2 (2.5 mM)], then washed and stained with fluorescently conjugated secondary antibody (goat anti-mouse, Jackson ImmunoResearch, Cat. No. 115-006-003). Stained cells were then fixed in 1% paraformaldehyde. Splenocytes were pre-treated with Fc receptor block (Biolegend, Cat. No. 422301). PAG-GFP expressing cells were fixed in 1% paraformaldehyde. Events were recorded using FACSCanto (BD), and analyzed using FlowJo software (Ver. 10.8.1).

[3] = target: T3, PAG-GFP (full-length human PAG fused to GFP) expressed on cells (human, UniProt Q9NWQ8 1-432); assay: flow cytometry, non-permeabilized A549 cells stably expressing PAG-GFP (FIG. 7B; FIG. 2E)
T3 construct: Stably expressed in A549 cells (flow cytometry) and Jurkat T cells (microscopy); also called PAG-GFP (OE); not shown: GFP tag (peGFP-N1 / pCDH-PAG-GFP constructs)
T3 sequence: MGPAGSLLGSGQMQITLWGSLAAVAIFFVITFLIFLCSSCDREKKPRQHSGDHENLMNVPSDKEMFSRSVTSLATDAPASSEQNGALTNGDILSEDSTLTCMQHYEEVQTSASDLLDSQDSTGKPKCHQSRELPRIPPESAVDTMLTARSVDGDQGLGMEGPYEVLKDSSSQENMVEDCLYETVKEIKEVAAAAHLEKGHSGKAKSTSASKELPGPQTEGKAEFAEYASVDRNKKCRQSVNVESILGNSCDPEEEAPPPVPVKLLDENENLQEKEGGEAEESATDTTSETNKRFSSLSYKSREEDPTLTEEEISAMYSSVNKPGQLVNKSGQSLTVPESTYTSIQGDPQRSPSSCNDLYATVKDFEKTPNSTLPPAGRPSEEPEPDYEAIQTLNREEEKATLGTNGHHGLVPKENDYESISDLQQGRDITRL
Protocol: as §1

[4] = target: T1, human PAG peptide (extracellular …); assay: dose-response ELISA, immobilized human PAG, purified monoclonal antibody (FIG. 2F)
Protocol: (§2) Primary ELISA was done for screening binding of hybridoma supernatants to human, murine, and cynomolgus PAG (2 μg/mL). Second ELISA for confirmation of binding of purified monoclonal antibodies to human PAG, 96-well half area high binding ELISA plates (Corning 3690) were coated 1 μg/mL of human PAG protein in 1×TBS at room temperature for 2 hours. The plate was washed with TBS containing 0.05% Tween 20 and blocked with 2% BSA in TBS for 1 hour at room temperature. After 1 hour, the plate was washed and diluted PAG antibodies in 1×TBS were dispensed to respective wells and incubated for 1 hour at room temperature. The plate was washed and incubated with peroxidase-Affinipure F(ab′)2 goat anti-mouse IgG (Jackson Immuno Research, Cat. No. 115-006-003) at 1:5000 dilution for 1 hour at room temperature. After the plate was washed, 3, 3′, 5, 5′ tetramethyl benzidine (TMB) substrate (Biolegend, Cat. No. 421101) was added to each well. The reaction was stopped by adding 2N H2SO4. Absorbance was measured on plate reader (Biotek Synergy H1) and results calculated by A=A450 nm-A570 nm.

[5] = target: T1, human PAG peptide (extracellular …); assay: dose-response ELISA, immobilized human PAG, purified monoclonal antibodies (FIG. 2F)
Protocol: as §2

binding result [1]: binds
B1: 7M-hu-1 (humanized version of 7M16A) (antibody, V domains shown)
VH: QVQLVQSGAEVKKPGASVKVSCKASGYTFTSYVMHWVRQAPGQGLEWMGYIYPYNDGTKYNEKFKGRVTMTRDTSTSTVYMELSSLRSEDTAVYYCARYKYGQGFAYWGQGTTVTVSS
VL: DIQMTQSPSSVSASVGDRVTITCRASENIYSNLAWYQQKPGKAPKLLIYAATNLADGVPSRFSGSGSGTDFTLTISSLQPEDFATYYCQHFWGTPWTFGGGTKLEIKR

binding result [2]: binds | binding result [3]: binds | binding result [4]: binds
B2: anti-PAG antibody clone 7M16A (antibody, mouse IgG1, kappa, V domains shown)
VH: EVQLQQSGPELVKPGASVKMSCKASGYTFTSYVMHWVKQKPGQGLEWIGYIYPYNDGTKYNEKFKGKATLTSDKSSSTAYMELSSLTSEDSAVYYCARYKYGQGFAYWGQGTRVTVSA
VL: DIQMTQSPASLSVSVGETVTITCRASENIYSNLAWYQQKQGKSPQLLVYAATNLADGVPSRFSGSGSGTQYSLKINSLQSEDFGSYYCQHFWGTPWTFGGGTKLEIKR
notes: Mouse hybridoma monoclonal, tested as hybridoma supernatant and as purified antibody

binding result [5]: no binding
B3: anti-PAG antibody clone 8D04A (antibody, mouse IgG1, kappa, V domains shown)
VH: QIQLVQSGPELKKPGETVKISCKASGYIFTNYGMNWVKQAPGKGLKWMGWINPYTGEATYDDDFKGRFAFSLETSANTAYLQINNLKNEDTATYFCAKTGTTYWGQGTLVTVSA
VL: QIVLTQSPAIMSASPGEKVTMTCSASSSVSYMYWYQQKSGTSPKRWIYDTSKLASGVPARFSGSGSGTSYSLTINNMEAEDAATYYCQQWSSNPLTFGAGTKLELKR
notes: Mouse hybridoma monoclonal
